# B1: BBSome complex member BBS2 (Homo sapiens), Q9BXC9 (parent)
# chain: MLLPVFTLKLRHKISPRMVAIGRYDGTHPCLAAATQTGKVFIHNPHTRNQHVSASRVFQSPLESDVSLLSINQAVSCLTAGVLNPELGYDALLVGTQTNLLAYDVYNNSDLFYREVADGANAIVLGTLGDISSPLAIIGGNCALQGFNHEGSDLFWTVTGDNVNSLALCDFDGDGKKELLVGSEDFDIRVFKEDEIVAEMTETEIVTSLCPMYGSRFGYALSNGTVGVYDKTSRYWRIKSKNHAMSIHAFDLNSDGVNELITGWSNGKVDARSDRTGEVIFKDNFSSAIAGVVEGDYRMDGHIQLICCSVDGEIRGYLPGTAEMRGNLMDTSAEQDLIRELSQKKQNLLLELRNYEENAKAELASPLNEADGHRGIIPANTRLHTTLSVSLGNETQTAHTELRISTSNDTIIRAVLIFAEGIFTGESHVVHPSIHNLSSSICIPIVPPKDVPVDLHLKAFVGYRSSTQFHVFESTRQLPRFSMYALTSLDPASEPISYVNFTIAERAQRVVVWLGQNFLLPEDTHIQNAPFQVCFTSLRNGGHLHIKIKLSGEITINTDDIDLAGDIIQSMASFFAIEDLQVEADFPVYFEELRKVLVKVDEYHSVHQKLSADMADHSNLIRSLLVGAEDARLMRDMKTMKSRYMELYDLNRDLLNGYKIRCNNHTELLGNLKAVNQAIQRAGRLRVGKPKNQVITACRDAIRSNNINTLFKIMRVGTASS
# partner: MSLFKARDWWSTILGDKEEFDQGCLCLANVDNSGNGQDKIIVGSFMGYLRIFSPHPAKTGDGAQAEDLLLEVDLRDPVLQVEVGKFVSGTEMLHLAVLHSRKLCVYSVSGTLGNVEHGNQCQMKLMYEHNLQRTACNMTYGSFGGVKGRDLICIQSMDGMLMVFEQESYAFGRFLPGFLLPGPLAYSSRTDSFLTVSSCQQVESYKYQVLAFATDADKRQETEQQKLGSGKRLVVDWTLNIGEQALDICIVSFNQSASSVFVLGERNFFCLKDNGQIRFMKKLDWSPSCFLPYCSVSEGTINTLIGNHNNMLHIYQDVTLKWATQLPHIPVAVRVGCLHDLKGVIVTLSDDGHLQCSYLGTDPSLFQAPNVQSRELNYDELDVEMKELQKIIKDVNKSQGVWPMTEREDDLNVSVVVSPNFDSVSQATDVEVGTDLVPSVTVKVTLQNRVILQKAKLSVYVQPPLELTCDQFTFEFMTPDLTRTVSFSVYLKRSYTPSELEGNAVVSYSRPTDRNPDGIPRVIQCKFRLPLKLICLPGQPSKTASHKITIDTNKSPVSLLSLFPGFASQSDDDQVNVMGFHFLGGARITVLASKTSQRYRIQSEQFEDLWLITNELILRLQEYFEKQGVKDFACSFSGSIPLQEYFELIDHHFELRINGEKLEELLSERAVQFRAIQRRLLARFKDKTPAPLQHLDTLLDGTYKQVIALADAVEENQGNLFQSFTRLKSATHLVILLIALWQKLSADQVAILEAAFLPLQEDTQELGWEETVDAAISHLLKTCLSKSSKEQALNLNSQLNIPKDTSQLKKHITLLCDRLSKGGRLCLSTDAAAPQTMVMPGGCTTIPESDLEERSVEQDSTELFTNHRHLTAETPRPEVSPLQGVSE
# Variants of: B1
# Conditions: with pthb1_human BBS9, Q3SYG4
row,Variant,effect of a mutation on the interaction
1,F501A,with no effect
2,F501K,with no effect
3,F501E,disrupting interaction strength
4,E494A,with no effect
5,E494K,with no effect
6,V510K,with no effect
7,V510A,with no effect
8,V510E,with no effect
9,Y484K,disrupting interaction strength
10,Y484A,disrupting interaction strength
11,Y484E,disrupting interaction strength
12,E473K,with no effect
13,E473A,with no effect
14,R509E,with no effect
15,R509K,with no effect
16,R509A,with no effect
17,T524A,with no effect
18,T524E,with no effect
19,T524K,with no effect
20,N500K,with no effect
21,N500E,with no effect
22,N500A,with no effect
23,E522A,with no effect
24,E522K,with no effect

row,Variant,effect of a mutation on the interaction
1,F481E,disrupting interaction strength
2,F481K,disrupting interaction strength
3,F481A,disrupting interaction strength
4,S497E,with no effect
5,S497K,with no effect
6,S497A,disrupting interaction strength
7,D490E,with no effect
8,D490A,with no effect
9,D490K,with no effect
10,R506K,with no effect
11,R506E,with no effect
12,R506A,with no effect
13,S488K,with no effect
14,S488A,with no effect
15,S488E,with no effect
16,S488R,disrupting interaction strength
17,I503A,with no effect
18,I503K,with no effect
19,I503E,with no effect
20,L478E,disrupting interaction strength
21,L478P,disrupting interaction strength
22,L478K,disrupting interaction strength
23,L478A,disrupting interaction strength
24,Y498K,with no effect

row,Variant,effect of a mutation on the interaction
1,Y498H,disrupting interaction strength
2,Y498A,with no effect
3,Y498E,with no effect
4,D523A,with no effect
5,D523E,with no effect
6,D523K,with no effect
7,R476A,with no effect
8,R476K,with no effect
9,R476E,with no effect
10,V511E,with no effect
11,V511A,with no effect
12,V511K,with no effect
13,W513A,disrupting interaction strength
14,W513K,disrupting interaction strength
15,V471K,with no effect
16,M483I,disrupting interaction strength
17,M483A,with no effect
18,M483K,disrupting interaction strength
19,M483E,disrupting interaction strength
20,H525E,with no effect
21,H525A,with no effect
22,H525K,with no effect
23,A507K,with no effect
24,A507E,with no effect

row,Variant,effect of a mutation on the interaction
1,A504K,with no effect
2,A504E,with no effect
3,V512A,with no effect
4,V512K,with no effect
5,V512E,with no effect
6,V499K,with no effect
7,V499A,with no effect
8,V499E,with no effect
9,A492K,with no effect
10,A492E,with no effect
11,Q477E,with no effect
12,Q477K,with no effect
13,Q477A,with no effect
14,E505A,with no effect
15,E505K,with no effect
16,T487M,disrupting interaction strength
17,T487E,with no effect
18,T487A,with no effect
19,T487K,with no effect
20,L486K,with no effect
21,L486A,with no effect
22,L486E,with no effect
23,I496A,with no effect
24,I496E,with no effect

row,Variant,effect of a mutation on the interaction
1,I496K,with no effect
2,F518L,disrupting interaction strength
3,F518A,with no effect
4,F518E,disrupting interaction strength
5,F518K,disrupting interaction strength
6,P491E,with no effect
7,P491K,with no effect
8,P491A,with no effect
9,N517K,with no effect
10,N517A,with no effect
11,N517E,with no effect
12,N517L,disrupting interaction strength
13,P479A,with no effect
14,P479L,disrupting interaction strength
15,P479E,disrupting interaction strength
16,P479K,with no effect
17,T475A,with no effect
18,T475K,with no effect
19,T475E,with no effect
20,P495A,with no effect
21,P495E,with no effect
22,P495K,with no effect
23,G515K,with no effect
24,G515E,with no effect

row,Variant,effect of a mutation on the interaction
1,G515A,with no effect
2,G515R,disrupting interaction strength
3,G515C,disrupting interaction strength
4,S493E,with no effect
5,S493A,with no effect
6,S493K,with no effect
7,S474E,with no effect
8,S474K,disrupting interaction strength
9,S474A,disrupting interaction strength
10,S482K,disrupting interaction strength
11,S482A,with no effect
12,S482P,disrupting interaction strength
13,S482E,disrupting interaction strength
14,Q516E,with no effect
15,Q516K,with no effect
16,Q516A,with no effect
17,L514E,disrupting interaction strength
18,L514A,with no effect
19,L514K,disrupting interaction strength
20,L520A,with no effect
21,L520K,with no effect
22,L520E,with no effect
23,T502K,with no effect
24,T502A,with no effect

row,Variant,effect of a mutation on the interaction
1,T502E,with no effect
2,R480E,with no effect
3,R480K,with no effect
4,R480A,with no effect
5,A485K,with no effect
6,A485S,disrupting interaction strength
7,A485E,with no effect
8,L519K,with no effect
9,L519E,with no effect
10,L519A,with no effect
11,L489A,with no effect
12,L489E,with no effect
13,L489K,with no effect
14,F472K,with no effect
15,F472A,with no effect
16,F472E,with no effect
17,Q508A,disrupting interaction strength
18,Q508K,with no effect
19,Q508E,with no effect
20,I526A,with no effect
21,I526E,with no effect
22,P521K,with no effect
23,P521E,with no effect
24,P521A,with no effect
